Data as given in patent US20240301031A1 (JIANGSU HENGRUI PHARMACEUTICALS, published 2024).
Where two headings read alike, the source gives them in different places.

Legend:
[1] = biological target: T1, BAFF (R&D Systems, 7537-BF) (UniProt Q9Y275 134-285); test: cell-based or functional assay
[2] = biological target: T1, BAFF (R&D Systems, 7537-BF); test: cell-based or functional assay; remark: listed apart in the source
[3] = biological target: T2, human BAFF (10056-HNCH, Sino biological) (human, UniProt Q9Y275 134-285); test: ELISA, BAFF coated, sample titrated
T2 construct: Bought protein
Description: The binding activity of the antibodies or fusion proteins for BAFF, APRIL, and IL-12/23 p40 was assayed by the ELISA method (coating an antigen protein). The specific procedures were as follows:
A BAFF (Sino biological, 10056-HNCH), APRIL (R&D Systems, 5860-AP-010/CF), or IL-12/23 p40 (Sino biological, 10052-H08H) protein was diluted to 1 μg/mL with a PBS (BasalMedia, B320) buffer at pH 7.4, and added to a 96-well microplate (Corning, 3590) at 100 μL/well. The plate was incubated at 4° C. overnight. After the liquid was discarded, 300 μL of 5% skim milk (BD, 232100) diluted with PBS was added to each well for blocking, and the plate was incubated at 37° C. for 2 h. After the blocking was completed, the blocking solution was discarded, and the plate was washed 3 times with a PBST buffer (PBS at pH 7.4 containing 0.1% tween-20). 100 μL of test antibody or fusion protein solution diluted in a gradient was added to each well, and the plate was incubated at 37° C. for 1 h. After the incubation was completed, the plate was washed 3 times with PBST. […] The plate was washed 3 times with PBST. […] The plate was read for absorbance values at 450 nm on a microplate reader, the binding curves of the antibodies to an antigen were fitted with software, and the EC₅₀ values were calculated.

[4] = biological target: T2, human BAFF (10056-HNCH, Sino biological); test: competition ELISA: BAFF-R coated on the plate, biotin-labelled BAFF at a fixed concentration pre-incubated with the diluted sample, streptavidin-HRP, OD450 (blocked ligand-receptor pair: BAFF/BAFF-R)
Description: A receptor protein was diluted to 2 μg/mL with PBS at pH 7.4 (BasalMedia, B320) and added to a 96-well microplate (Corning, 3590) at 100 μL/well. The plate was incubated at 4° C. overnight. After the liquid was discarded, 200 μL of 1% Casein blocking solution (Thermo, 37528) was added to each well for blocking, and the plate was incubated at 37° C. for 2 h. After the blocking was completed, the blocking solution was discarded, and the plate was washed 3 times with a PBST buffer (PBS at pH 7.4 containing 0.1% tween-20) for later use. A biotin-labeled ligand protein at a fixed concentration was mixed with the antibody or fusion protein diluted in gradient, pre-incubated at 37° C. for 30 min, and added to a blocked microplate. The plate was incubated at 37° C. for 1.5 h. After the incubation was completed, the plate was washed 3 times with PBST. 100 μL of streptavidin-HRP (Invitrogen, 434323, diluted at a ratio of 1:4000) was added to each well, and the plate was incubated at 37° C. for 1 h. The supernatant was removed, and the plate was washed 3 times with PBST. […] The plate was read for absorbance values at 450 nm on a microplate reader, the curves for the inhibition of the binding of the ligands to the receptors were fitted with software, and the IC₅₀ values were calculated. […]

IC50 (nM) for the inhibition of the BAFF-induced B cell proliferation [1]: 0.382 nM
IC50 (nM) for the inhibition of the BAFF-induced B cell proliferation [2]: 0.386 nM
EC50 [3]: 6.71 nM
IC50 (read off the curve) [4]: ~3 nM
B1: RCT-18 (Telitacicept) (Fc fusion)
chain: SRVDQEERFPQGLWTGVAMRSCPEEQYWDPLLGTCMSCKTICNHQSQRTCAAFCRSLSCRKEQGKFYDHLLRDCISCASICGQHPKQCAYFCENKLRSPVNLPPELDKTHTCPPCPAPEAEGAPSVFLFPPKPKDTLMISRTPEVTCVVVDVSHEDPEVKFNWYVDGVEVHNAKTKPREEQYNSTYRVVSVLTVLHQDWLNGKEYKCKVSNKALPSSIEKTISKAKGQPREPQVYTLPPSRDELTKNQVSLTCLVKGFYPSDIAVEWESNGQPENNYKTTPPVLDSDGSFFLYSKLTVDKSRWQQGNVFSCSVMHEALHNHYTQKSLSLSPGK
notes: Positive control; TACI part is positions 13-118 of the extracellular region of human TACI, the rest is Fc
